What follows are binders tested against T1, human αvβ3 integrin ITGAVB3 (human, UniProt P06756 31-992; P05106 27-718, limits assumed) (assay: SPR, αvβ3 integrin immobilised on CMDH chip, nanobody as analyte).
T1 construct: Recombinant heterodimer used as immunogen, ELISA coating and SPR ligand; also called A5B3; A5b3
Protocol: Specifically, a CMDH chip (Carboxymethyl Dextran Hydrogel Surface Sensor Chip, Reichert Technologies) coated with Dextran was mounted on an SPR equipment (Reichert SR7500DC system) to perform immobilization of αᵥβ₃ integrin antigen. Then, an analysis of the affinity of the selected antibody based on the concentration was performed.

T1 sequence (P06756 31-992 limits assumed, chain 1 of 2): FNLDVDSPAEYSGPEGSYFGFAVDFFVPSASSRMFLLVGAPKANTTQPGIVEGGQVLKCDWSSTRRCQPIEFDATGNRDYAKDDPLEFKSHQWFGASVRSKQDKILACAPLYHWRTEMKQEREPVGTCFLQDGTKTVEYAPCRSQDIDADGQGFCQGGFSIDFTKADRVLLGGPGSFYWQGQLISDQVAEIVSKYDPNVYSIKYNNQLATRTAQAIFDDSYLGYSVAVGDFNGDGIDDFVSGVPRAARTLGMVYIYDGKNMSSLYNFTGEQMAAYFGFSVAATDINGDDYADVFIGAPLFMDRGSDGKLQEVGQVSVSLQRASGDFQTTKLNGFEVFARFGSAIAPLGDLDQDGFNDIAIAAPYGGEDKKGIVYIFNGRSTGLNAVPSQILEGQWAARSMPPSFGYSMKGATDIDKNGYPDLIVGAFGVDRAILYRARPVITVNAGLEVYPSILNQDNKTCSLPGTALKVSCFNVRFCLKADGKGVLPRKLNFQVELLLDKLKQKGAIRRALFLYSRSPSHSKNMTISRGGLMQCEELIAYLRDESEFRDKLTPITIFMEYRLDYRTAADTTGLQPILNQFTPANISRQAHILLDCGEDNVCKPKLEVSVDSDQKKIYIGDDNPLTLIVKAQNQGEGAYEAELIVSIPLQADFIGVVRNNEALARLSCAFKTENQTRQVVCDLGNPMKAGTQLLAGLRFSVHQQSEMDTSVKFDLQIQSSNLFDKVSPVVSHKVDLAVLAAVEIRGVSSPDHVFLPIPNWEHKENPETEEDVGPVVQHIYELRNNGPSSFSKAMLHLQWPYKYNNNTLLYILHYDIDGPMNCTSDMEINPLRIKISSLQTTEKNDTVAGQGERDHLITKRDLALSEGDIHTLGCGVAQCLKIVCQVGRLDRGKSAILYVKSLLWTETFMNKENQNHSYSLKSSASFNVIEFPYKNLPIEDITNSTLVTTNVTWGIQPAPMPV
T1 sequence (P05106 27-718 limits assumed, chain 2 of 2): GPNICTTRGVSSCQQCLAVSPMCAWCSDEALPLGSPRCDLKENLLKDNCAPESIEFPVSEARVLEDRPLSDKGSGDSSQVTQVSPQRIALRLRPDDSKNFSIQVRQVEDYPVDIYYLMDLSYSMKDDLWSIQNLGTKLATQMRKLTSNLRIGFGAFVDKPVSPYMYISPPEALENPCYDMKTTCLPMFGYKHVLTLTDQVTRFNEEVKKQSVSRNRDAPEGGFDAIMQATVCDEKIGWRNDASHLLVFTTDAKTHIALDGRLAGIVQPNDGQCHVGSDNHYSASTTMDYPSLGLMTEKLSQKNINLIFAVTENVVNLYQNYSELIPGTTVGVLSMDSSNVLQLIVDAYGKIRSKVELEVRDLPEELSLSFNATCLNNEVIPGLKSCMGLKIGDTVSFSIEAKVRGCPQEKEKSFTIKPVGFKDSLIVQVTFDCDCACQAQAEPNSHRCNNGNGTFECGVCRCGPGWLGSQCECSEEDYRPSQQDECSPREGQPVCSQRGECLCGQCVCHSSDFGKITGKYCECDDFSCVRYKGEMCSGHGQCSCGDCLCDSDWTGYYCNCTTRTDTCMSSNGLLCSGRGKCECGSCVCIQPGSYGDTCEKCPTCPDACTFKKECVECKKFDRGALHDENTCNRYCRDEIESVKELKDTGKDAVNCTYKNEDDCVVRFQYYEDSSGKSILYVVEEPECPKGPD

Row | Kd [nM] | koff [s⁻¹] | kon [M⁻¹ s⁻¹] | Binder
1 | 9.38 | 0.00108 | 115000 | single-domain antibody VHH-13 containing His6 tag (VHH, also called Nanobody #13) VHH: HVQLVESGGGSVQPGESLRLSCVASGYTVSSSCMAWFRQAPGKEREVVATIVVTSDTTSTFYADSVKGRFTISPDNAKNTLNLQMNSLEPSDTAMYYCAADRKWNVCSRGYRYTPNWANQFTFWGQGTQVTVSS
2 | 15.5 | 0.000974 | 62700 | single-domain antibody VHH-22 containing His6 tag (VHH, also called Nanobody #22) VHH: QVQLVESGGGSVQAGGSLRLSCVVSGYTCSVYDMIWYRQPPGKEREFVSLINSNGRTTYADSVKGRFTISQNNAKNTVYLQMNSLKPEDTAMYYCHAACYSPSRLNYWGQGTLVTVSS
3 | 8.83 | 0.000871 | 98600 | single-domain antibody VHH-25 containing His6 tag (VHH, also called Nanobody #25; pALT-Avb3 VHH25 product) VHH: EVQLVESGGGSVQAGGSLRLSCVVSGYTCSVYDMIWYRQPPGKEREFVSLINSNGRTTYADSVKGRFTISQNNAKNTVYLQMNSLKPEDTAMYYCHAACYSPSRLNYWGQGTQVTVSS

The binders below were run against T1, human αvβ3 integrin ITGAVB3 (assay: phage ELISA, coated ITGAVB3, anti-M13-HRP, 490 nm).
Protocol: Further, in order to perform phage ELISA, 2.5 μg/mL to […] of a target protein and a control protein were coated at 4 degrees C. using a coating buffer, and the wells were washed 3 times with 200 μL washing buffer per well. The wells were blocked with 200 μL PBS-M for two hours at room temperature. The blocking buffer was removed and the plate was washed 6 times with the washing solution. Thereafter, 100 μL of phage solution was added to the washing buffer per well and incubation was executed at room temperature for 1 to 2 hours. Then, washing was performed 6 times with washing buffer. HRP-binding anti-M13 antibody (GE healthcare) was diluted with 1:5,000 blocking buffer. 100 μL of diluted conjugate was added onto each well, and incubation was performed at room temperature for 1 hour, and washing was carried out 6 times with washing buffer. The HRP substrate solution was prepared as follows: A stock solution of OPD was prepared by dissolving 22 mg OPD (Sigma) in 100 mL of […] sodium citrate (pH 4.0), and 36 μL 30% H₂O₂ was added to 21 mL of OPL stock solution immediately before the detection step. 100 μL of substrate solution was added to each well and incubation was performed for 30 minutes at room temperature. Plates were analyzed using a micro plate reader set at 490 nm.

Row | Binder | OD490
4 | VHH-12 (VHH, also called clone 12) VHH: EVQLVESGGGSVQPGESLRLSCVASGYTVSSSCMAWFRQAPGKEREVVATIVVTSDTTSTFYADSVKGRFTISPDNAKNTLNLQMNSLEPSDTAMYYCAADRKWNVCSRGYRYTPNWANQFTFWGQGTQVTVSS | 2.06
5 | clone 19 (VHH) VHH: EVQLVESGGGSVQPGESLRLSCVASGYTVSSSCMAWFRQAPGKEREVVATIVVTSDTTSTFYADSVKGRFTISPDNAKNTLNLQMNSLEPSDTAMYYCAADRKWNVCSRGYRYTPNWANQFTFWGQGTQVTVSS | 1.94
6 | clone 28 (VHH) VHH: EVQLVESGGGSVQPGESLRLSCVASGYTVSSSCMAWFRQAPGKEREVVATIVVTSDTTSTFYADSVKGRFTISPDNAKNTLNLQMNSLEPSDTAMYYCAADRKWNVCSRGYRYTPNWANQFTFWGQGTQVTVSS | 1.94
7 | clone 27 (VHH) VHH: HVQLVESGGGSVQPGESLRLSCVASGYTVSSSCMAWFRQAPGKEREVVATIVVTSDTTSTFYADSVKGRFTISPDNAKNTLNLQMNSLEPSDTAMYYCAADRKWNVCSRGYRYTPNWANQFTFWGQGTQVTVSS | 1.97
8 | clone 4 (VHH) VHH: EVQLVESGGGSVQPGESLRLSCVASGYTVSSSCMAWFRQAPGKEREVVATIVVTSDTTSTFYADSVKGRFTISPDNAKNTLNLQMNSLEPPDTAMYYCAADRKWNVCSRGYRYTPNWANQFTFWGQGTQVTVSS | 2.16
9 | clone 2 (VHH) VHH: EVQLVESGGGSVQPGESLRLSCVASGYTVSSSCMAWFRQAPGKEREVVATIVVTSDTTSTFYADSVKGRFTISPDNAKNTLNLQMNSLEPPDTAMYYCAADRKWNVCSRGYRYTPNWANQFTFWGQGTQVTVSS | 2.02
10 | clone 29 (VHH) VHH: DVQLVESGGGSVQPGESLRLSCVASGYTVSSSCMAWFRQAPGKEREVVATIVVTSDTTSTFYADSVKGRFTISPDNAKNTLNLQMNSLEPSDTAMYYCAADRKWNVCSRGYRYTPNWANQFTFWGQGTLVTVSS | 2.04
11 | clone 3 (VHH) VHH: EVQLVESGGGSVQPGESLRLSCVASGYTVSSSCMAWFRQAPGKEREVVATIVVTSDTTSTFYADSVKGRFTISPDNAKNTLNLQMNSLEPPDTAMYYCAADRKWNVCSRGYRYTPNWANQFTFWGQGTQVTVSS | 1.88
12 | clone 21 (VHH) VHH: HVQLVESGGGSVQPGESLRLSCVASGYTVSSSCMAWFRQAPGKEREVVATIVVTSDTTSTFYADSVKGRFTISPDNAKNTLNLQMNSLEPSDTAMYYCAADRKWNVCSRGYRYTPNWANQFTFWGQGTQVTVSS | 1.95
13 | clone 14 (VHH) VHH: DVQLVESGGGSVQPGESLRLSCVASGYTVSSSCMAWFRQAPGKEREVVATIVVTSDTTSTFYADSVKGRFTISPDNAKNTLNLQMNSLEPSDTAMYYCAADRKWNVCSRGYRYTPNWANQFTFWGQGTLVTVSS | 1.93
14 | clone 8 (VHH) VHH: DVQLVESGGGSVQPGGSLRLSCAASGYTVENSCMAWFRQAPGKEREVVATIVTNNATGTFYADSVKGRFTVSQDNAKNTLNLQMNSLEPEDTAMYYCAADTKWIVCSRGYRYTPNWANQFKYWGQGTQVTVSS | 1.95
15 | clone 30 (VHH) VHH: DVQLVESGGGSVQPGGSLRLSCAASGYTVDNSCMAWFRQAPGKEREVVATIVTNNATSTFYADSVKGRFTVSHDNAKNTLNLQMNTLEPEDTAMYYCAADTKWIVCSRGYRYTPNWANHFNYWGQGTLVTVSS | 1.97
16 | clone 10 (VHH) VHH: EVQLVESGGGSVQAGGSLRLSCVVSGYTCSVYDMIWYRQPPGKEREFVSLINSNGRTTYADSVKGRFTISQNNAKNTVYLQMNSLKPEDTAMYYCHAACYSPSRLNYWGQGTQVTVSS | 2.14
17 | clone 26 (VHH) VHH: QVQLVESGGGSVQAGGSLRLSCVVSGYTCSVYDMIWYRQPPGKEREFVSLINSNGRTTYADSVKGRFTISQNNAKNTVYLQMNSLKPEDTAMYYCHAACYSPSRLNYWGQGTLVTVSS | 2.01

Now from value to binder:

Row | OD490 | Binder
18 | 1.88 | clone 32 (VHH) VHH: EVQLVESGGGSVQPGESLRLSCVASGYTVSSSCMAWFRQAPGKEREVVATIVVTSDTTSTFYADSVKGRFTISPDNAKNTLNLQMNSLEPSDTAMYYCAADRKWNVCSRGYRYTPNWANQFTFWGQGTQVTVSS
19 | 1.8 | clone 39 (VHH) VHH: EVQLVESGGGSVQPGESLRLSCVASGYTVSSSCMAWFRQAPGKEREVVATIVVTSDTTSTFYADSVKGRFTISPDNAKNTLNLQMNSLEPPDTAMYYCAADRKWNVCSRGYRYTPNWANQFTFWGQGTQVTVSS
20 | 2.01 | clone 34 (VHH) VHH: DVQLVESGGGSVQPGGSLRLSCAASGYTVENSCMAWFRQAPGKEREVVATIVTNNATGTFYADSVKGRFTVSQDNAKNTLNLQMNSLEPEDTAMYYCAADTKWIVCSRGYRYTPNWANQFKYWGQGTQVTVSS
21 | 1.98 | clone 36 (VHH) VHH: DVQLVESGGGSVQPGGSLRLSCAASGYTVENSCMAWFRQAPGKEREVVATIVTNNATGTFYADSVKGRFTVSQDNAKNTLNLQMNSLEPEDTAMYYCAADTKWIVCSRGYRYTPNWANQFKYWGQGTQVTVSS
22 | 2.04 | clone 40 (VHH) VHH: DVQLVESGGGSVQPGGSLRLSCAASGYTVDNSCMAWFRQAPGKEREVVATIVTNNATSTFYADSVKGRFTVSHDNAKNTLNLQMNTLEPEDTAMYYCAADTKWIVCSRGYRYTPNWANHFNYWGQGTLVTVSS
23 | 2.12 | clone 38 (VHH) VHH: DVQLVESGGGSVQPGGSLRLSCAASGYTVDNSCMAWFRQAPGKEREVVATIVTNNATSTFYADSVKGRFTVSHDNAKNTLNLQMNTLEPEDTAMYYCAADTKWIVCSRGYRYTPNWANHFNYWGQGTLVTVSS
24 | 2.09 | clone 37 (VHH) VHH: HVQLVESGGGSVQTGGSLRLSCAASGYTSSTVYMAWFRQTPGKQREGVAAIYTGGGPTYYADSVKGRFTISQDNAKNTVYLQMNTLKPEDTAMYYCAADRYVYRLVTNWYRPSFYTYWGQGTQVTVSS
25 | 1.86 | clone 33 (VHH) VHH: EVQLVESGGGSVQAGGSLRLSCVVSGYTCSVYDMIWYRQPPGKEREFVSLINSNGRTTYADSVKGRFTISQNNAKNTVYLQMNSLKPEDTAMYYCHAACYSPSRLNYWGQGTQVTVSS

These binders were tested against T1, human αvβ3 integrin ITGAVB3 (assay: ELISA of soluble VHH, induced at 30 C; coating not given).

Row | OD490 | Binder
26 | 1.84 | VHH-12 (VHH, also called clone 12) VHH: EVQLVESGGGSVQPGESLRLSCVASGYTVSSSCMAWFRQAPGKEREVVATIVVTSDTTSTFYADSVKGRFTISPDNAKNTLNLQMNSLEPSDTAMYYCAADRKWNVCSRGYRYTPNWANQFTFWGQGTQVTVSS

Each binder was assayed against T1, human αvβ3 integrin ITGAVB3 (assay: ELISA of soluble VHH, induced at 37 C; coating not given).

Row | OD490 | Binder
27 | 1.23 | VHH-12 (VHH, also called clone 12) VHH: EVQLVESGGGSVQPGESLRLSCVASGYTVSSSCMAWFRQAPGKEREVVATIVVTSDTTSTFYADSVKGRFTISPDNAKNTLNLQMNSLEPSDTAMYYCAADRKWNVCSRGYRYTPNWANQFTFWGQGTQVTVSS

Each binder was assayed against T1, human αvβ3 integrin ITGAVB3 (assay: ELISA of soluble VHH (TG1 lysate), induced at 30 C, coated ITGAVB3).

Row | OD490 | Binder
28 | 1.87 | VHH-12 (VHH, also called clone 12) VHH: EVQLVESGGGSVQPGESLRLSCVASGYTVSSSCMAWFRQAPGKEREVVATIVVTSDTTSTFYADSVKGRFTISPDNAKNTLNLQMNSLEPSDTAMYYCAADRKWNVCSRGYRYTPNWANQFTFWGQGTQVTVSS

These binders were tested against T1, human αvβ3 integrin ITGAVB3 (assay: ELISA of soluble VHH (TG1 lysate), induced at 37 C, coated ITGAVB3).

Row | OD490 | Binder
29 | 1.93 | VHH-12 (VHH, also called clone 12) VHH: EVQLVESGGGSVQPGESLRLSCVASGYTVSSSCMAWFRQAPGKEREVVATIVVTSDTTSTFYADSVKGRFTISPDNAKNTLNLQMNSLEPSDTAMYYCAADRKWNVCSRGYRYTPNWANQFTFWGQGTQVTVSS
